Our source for the Kd values is PMC11983102, “Conjugation to a transferrin receptor 1-binding Bicycle peptide enhances ASO and siRNA potency in skeletal and cardiac muscles” (Nucleic Acids Research, 2025).

The target in the test is human His6-TfR1, P02786. Description: SPR. Particulars: chain shown with the change.
human His6-TfR1, P02786, sequence (P02786 89-760): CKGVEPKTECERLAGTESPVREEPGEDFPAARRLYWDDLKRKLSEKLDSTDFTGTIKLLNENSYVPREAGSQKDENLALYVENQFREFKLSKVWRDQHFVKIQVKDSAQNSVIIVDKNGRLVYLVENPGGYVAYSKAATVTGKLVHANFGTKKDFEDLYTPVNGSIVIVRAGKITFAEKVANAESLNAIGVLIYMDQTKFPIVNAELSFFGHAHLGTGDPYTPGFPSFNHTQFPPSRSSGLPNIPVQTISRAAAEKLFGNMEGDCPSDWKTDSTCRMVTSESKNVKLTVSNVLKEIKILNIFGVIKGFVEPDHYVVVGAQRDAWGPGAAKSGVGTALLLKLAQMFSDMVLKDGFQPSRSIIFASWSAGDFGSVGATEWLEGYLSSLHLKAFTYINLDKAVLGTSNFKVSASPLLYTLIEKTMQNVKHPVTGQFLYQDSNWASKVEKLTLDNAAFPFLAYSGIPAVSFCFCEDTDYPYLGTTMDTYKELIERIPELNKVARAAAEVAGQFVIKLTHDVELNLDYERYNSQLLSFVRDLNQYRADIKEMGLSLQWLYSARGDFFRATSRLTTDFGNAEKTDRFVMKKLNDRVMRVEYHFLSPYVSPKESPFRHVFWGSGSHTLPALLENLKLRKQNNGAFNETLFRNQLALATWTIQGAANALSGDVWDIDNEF

B1: BCY15468 Ni:A del; Ti:A del; Nii:Ac (N-terminal acetyl cap) (peptide)
chain: CSPDAHLGCISYC
What is called Kd is the equilibrium constant for the complex coming apart. A higher Kd goes with lower affinity. In turn, B1 returned a Kd of 46 nM.
